Measurements from patent US20150246959A1.

Biological target: MART-1 presented by HLA-A*0201 on 624 mel-CIITA cells (human)
Test: cell-based or functional assay

F5 (anti-MART-1) TCR
IFN-gamma (pg/ml); Donor 1; 624-CIITA: 1480 pg/mL
IFN-gamma (pg/ml); Donor 2; 624-CIITA: 1440 pg/mL
